Laboratory results as given in article PMC7611114 (Nature chemistry, 2021).

Target: the molecule itself
Assay: crystal structure

For Ac-GKKSAWATVISALATVISALATVISAWATVG-NH2 [K2-CCTM-VbIc], the “stoichiometry N” value was 8.
